Assay results: patent publication US20090169570A1 (BIOTEST, published 2009)
Where “and” joins values, the source holds several entries; their conditions need not be identical. Equal values may be shown once.

T1: CD138 expressed on the cell surface (OPM-2, MOLP-8 cells) (human, UniProt P18827 23-310)
T1 sequence (looked up): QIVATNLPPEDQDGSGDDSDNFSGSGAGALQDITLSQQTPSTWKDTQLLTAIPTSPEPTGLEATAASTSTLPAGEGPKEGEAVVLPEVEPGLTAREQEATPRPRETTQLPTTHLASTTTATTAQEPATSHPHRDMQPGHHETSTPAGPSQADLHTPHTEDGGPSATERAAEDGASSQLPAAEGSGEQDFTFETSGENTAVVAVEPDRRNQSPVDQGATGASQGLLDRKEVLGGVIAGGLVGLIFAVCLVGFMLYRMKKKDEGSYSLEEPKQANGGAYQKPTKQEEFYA

T2: Soluble CD138 antigen from U-266 cell culture supernatant, biotinylated (human, UniProt P18827 23-245, limits assumed, biotinylated on primary amino groups with Sulfo-NHS-LC-Biotin)
T2 construct: This is the soluble form in the supernatant of the human MM cell line U-266; also called bCD138; biotinylated CD138
T2 sequence (looked up): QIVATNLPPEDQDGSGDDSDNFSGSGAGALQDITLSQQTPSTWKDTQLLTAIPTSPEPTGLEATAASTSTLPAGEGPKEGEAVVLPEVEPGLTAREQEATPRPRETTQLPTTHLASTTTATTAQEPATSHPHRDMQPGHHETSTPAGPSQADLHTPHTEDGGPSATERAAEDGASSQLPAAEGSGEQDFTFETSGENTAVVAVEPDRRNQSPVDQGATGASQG


Legend:
[1] = biological target: T1, CD138 expressed on the cell surface …; experiment: cell-based or functional assay
[2] = biological target: T1, CD138 expressed on the cell surface …; experiment: FACS on CD138+ OPM-2 cells, fluorescence-labeled secondary antibody, mean fluorescence against concentration
Source text: The mean fluorescence measured in these experiments was plotted against the antibody concentration.
In FIG. 6, the mean fluorescences as measure for the amount of cell bound antibody is plotted against different antibody or conjugate concentrations.

[3] = biological target: T2, Soluble CD138 antigen from U-266 cell …; experiment: SPR (BIACORE C), mean of three independent experiments, biotinylated soluble CD138 on streptavidin chip
Protocol: (§1) The unbound biotinylation reagent was removed using protein desalting columns. Immobilization of bCD138 The sensorchip (SENSOR CHIP SA, BIACORE AB) used in the BIACORE assay is designed to bind biotinylated molecules for interaction analysis in BIACORE systems. The surface consists of a carboxymethylated dextran matrix pre-immobilized with streptavidin and ready for high-affinity capture of biotinylated ligands. Immobilization of bCD138 was performed on SENSOR CHIP SA using a flow rate of 10 μL/min by manual injection. The chip surface was conditioned with three consecutive 1-minute injections of 1 M NaCl in 50 mM NaOH.
(§2) The software of BIACORE C uses pre-defined masks, so called “Wizards” for different experiments where only certain settings can be changed. As the BIACORE C was originally developed to measure concentrations, there is no wizard designed to carry out affinity measurements. […] With this wizard, two flow cells were measured and the dissociation phase was set to 90 s by performing the “Regeneration 1” with BIACORE running buffer. […] The dissociation equilibrium constants were determined by calculating the rate constants ka and kd. Afterwards, the KD-values of the analytes were calculated by the quotient of kd and ka with the BIAevaluation software.

[4] = biological target: T2, Soluble CD138 antigen from U-266 cell …; experiment: SPR (BIACORE C), biotinylated soluble CD138 on streptavidin chip, conjugate as analyte at 3.13-100 nM
Protocol: as §1, §2

Binder	EC50 (read off the curve) [2]	also measured
nBT062-SPDB-DM4 (antibody, human IgG4, kappa, V domains shown, maytansinoid DM4 attached via SPDB (disulfide) linker; attachment residues and chain not stated) VH: QVQLQQSGSELMMPGASVKISCKATGYTFSNYWIEWVKQRPGHGLEWIGEILPGTGRTIYNEKFKGKATFTADISSNTVQMQLSSLTSEDSAVYYCARRDYYGNFYYAMDYWGQGTSVTVSS VL: DIQMTQSTSSLSASLGDRVTISCSASQGINNYLNWYQQKPDGTVELLIYYTSTLQSGVPSRFSGSGSGTDYSLTISNLEPEDIGTYYCQQYSKLPRTFGGGTKLEIKR	–	IC50 (read off the curve); surviving fraction of MOLP-8 cells (WST viability assay, 5 days), curve 'w/o blocking' [1]: ~0.08 nM
nBT062 (antibody, human IgG4, kappa, V domains shown, also called cB-B4; chimeric B-B4) VH: QVQLQQSGSELMMPGASVKISCKATGYTFSNYWIEWVKQRPGHGLEWIGEILPGTGRTIYNEKFKGKATFTADISSNTVQMQLSSLTSEDSAVYYCARRDYYGNFYYAMDYWGQGTSVTVSS VL: DIQMTQSTSSLSASLGDRVTISCSASQGINNYLNWYQQKPDGTVELLIYYTSTLQSGVPSRFSGSGSGTDYSLTISNLEPEDIGTYYCQQYSKLPRTFGGGTKLEIKR	~1 nM	–
nBT062-SPP-DM1 (antibody, human IgG4, kappa, V domains shown, maytansinoid DM1 attached via SPP (disulfide) linker; attachment residues and chain not stated; average of 3.5 DM1 per antibody stated for nBT062-DM1) VH: QVQLQQSGSELMMPGASVKISCKATGYTFSNYWIEWVKQRPGHGLEWIGEILPGTGRTIYNEKFKGKATFTADISSNTVQMQLSSLTSEDSAVYYCARRDYYGNFYYAMDYWGQGTSVTVSS VL: DIQMTQSTSSLSASLGDRVTISCSASQGINNYLNWYQQKPDGTVELLIYYTSTLQSGVPSRFSGSGSGTDYSLTISNLEPEDIGTYYCQQYSKLPRTFGGGTKLEIKR	~1 nM	–
nBT062-SMCC-DM1 (antibody, human IgG4, kappa, V domains shown, maytansinoid DM1 attached via SMCC (non-cleavable) linker; attachment residues and chain not stated; average of 3.5 DM1 per antibody stated for nBT062-DM1) VH: QVQLQQSGSELMMPGASVKISCKATGYTFSNYWIEWVKQRPGHGLEWIGEILPGTGRTIYNEKFKGKATFTADISSNTVQMQLSSLTSEDSAVYYCARRDYYGNFYYAMDYWGQGTSVTVSS VL: DIQMTQSTSSLSASLGDRVTISCSASQGINNYLNWYQQKPDGTVELLIYYTSTLQSGVPSRFSGSGSGTDYSLTISNLEPEDIGTYYCQQYSKLPRTFGGGTKLEIKR	~1 nM	–
B-B4-SPP-DM1 (antibody, V domains shown, maytansinoid DM1 attached via SPP (disulfide) linker; attachment residues and chain not stated, the variable domain limits are inferred as for B-B4) VH: QVQLQQSGSELMMPGASVKISCKATGYTFSNYWIEWVKQRPGHGLEWIGEILPGTGRTIYNEKFKGKATFTADISSNTVQMQLSSLTSEDSAVYYCARRDYYGNFYYAMDYWGQGTSVTVSS VL: DIQMTQSTSSLSASLGDRVTISCSASQGINNYLNWYQQKPDGTVELLIYYTSTLQSGVPSRFSGSGSGTDYSLTISNLEPEDIGTYYCQQYSKLPRTFGGGTKLEIK	–	Kd [3]: 2.6 nM; Kd [4]: 2.6 nM and 2.7 nM
